The record followed here is patent publication US20160237147A1.

In assay [1] the target is recombinant rat beta-NGF (R&D Systems) (rat) (UniProt P25427). Put plainly: cell-based or functional assay.
Assay [2] deals with recombinant human NGF 1-120 (human) (UniProt P01138). Put plainly: cell-based or functional assay.

Bounds are passed on as bounds.

recombinant human NGF 1-120 (human), sequence (P01138 other isoform, or with tags, fused parts or gaps): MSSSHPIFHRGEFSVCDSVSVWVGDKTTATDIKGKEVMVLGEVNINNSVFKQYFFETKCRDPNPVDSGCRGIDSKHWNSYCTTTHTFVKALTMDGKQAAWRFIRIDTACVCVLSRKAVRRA
recombinant rat beta-NGF (R&D Systems) (rat), sequence (P25427 122-241 limits assumed): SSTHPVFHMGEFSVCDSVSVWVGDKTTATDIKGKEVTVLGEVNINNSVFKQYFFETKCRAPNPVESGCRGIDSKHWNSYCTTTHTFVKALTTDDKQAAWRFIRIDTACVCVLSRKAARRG

B1: anti-NGF antibody 14D11 (antibody, V domains shown)
VH: EVQLVQSGAEVKKPGESLKISCKGSGYNFTTYWIGWVRQMPGKGLEWMGIIYPGDSDTKYSPSFQGQVTISADKSISTAYLQWSSLKASDTAMYYCARNYYGSGTYYYYYGMNVWGQGTTVTVSS
VL: DIQMTQSPSSVSASVGDRVTITCRASQGISIWLAWYQHKPGKAPKLLIYAASSLQSGVPSRFSGSGSGTDFTLTISSLQPEDFATYYCQQANSFPWTFGQGTKVEIK
Turning to B1, the IC50 @ rNGF, NGF neutralization activity as in Example 3 in assay [1] was more than 20 nM. Besides, in assay [2], the IC50 @ hNGF, NGF neutralization activity as in Example 3 is 0.28 nM.

B2: anti-NGF antibody 14D10 (antibody, V domains shown)
VH: EVQLVESGGGLVQPGRSLRLSCTASGFTFEDYAMHWVRQAPGKGLEWVSGISWNRGIIGYADSVKGRFTVSRDNAKNSLYLQMNSLRAEDTALYYCAKEGYYGSGRPGYFYYVMDVWGQGTTVTVSS
VL: EIVLTQSPGTLSLSPGERATLSCRASQSVSSGFLAWFQQKPGQAPRLLIYGASSRATAIPDRFSGSGSGTDFTLTISRLEPEDFAVYYCQQYGSSPYTFGQGTKLEIK
As for B2, the IC50 @ rNGF, NGF neutralization activity as in Example 3 in assay [1] was more than 13 nM. Also, the IC50 @ hNGF, NGF neutralization activity as in Example 3 in assay [2] came out at 0.392 nM.
